Measurements published in patent US8535928B2, “Protease and use thereof” (Osaka University, priority 2008, dated 2013).

B1: Thermococcus kodakaraensis KOD1 protease Tk-SP (mature subtilisin-like serine protease, SEQ ID NO: 1 or SEQ ID NO: 3) (Thermococcus kodakarensis KOD1) (protein)
chain: VETEGLDESAAQVMATNMWNLGYDGSGITIGIIDTGIDASHPDLQGKVIGWVDFVNGKTTPYDDNGHGTHVASIAAGTGAASNGKYKGMAPGAKLVGIKVLNGQGSGSISDIINGVDWAVQNKDKYGIKVINLSLGSSQSSDGTDSLSQAVNNAWDAGLVVVVAAGNSGPNKYTVGSPAAASKVITVGAVDKYDVITDFSSRGPTADNRLKPEVVAPGNWIIAARASGTSMGQPINDYYTAAPGTSMATPHVAGIAALLLQAHPSWTPDKVKTALIETADIVKPDEIADIAYGAGRVNAYKAAYYDNYAKLTFTGYVSNKGSQSHQFTISGAGFVTATLYWDNSGSDLDLYLYDPNGNQVDYSYTAYYGFEKVGYYNPTAGTWTIKVVSYSGSANYQVDVVSDGSLGQPSGGGSEPSPSPSPEPTV
notes: C-terminus at 562 or 563
B2: Thermococcus kodakaraensis KOD1 Tk-subtilisin (Tk-sub) (Thermococcus kodakarensis KOD1) (protein)
chain: GKPSWLGGGSTQPAQTIPWGIERVKAPSVWSITDGSVSVIQVAVLDTGVDYDHPDLAANIAWCVSTLRGKVSTKLRDCADQNGHGTHVIGTIAALNNDIGVVGVAPGVQIYSVRVLDARGSGSYSDIAIGIEQAILGPDGVADKDGDGIIAGDPDDDAAEVISMSLGGPADDSYLYDMIIQAYNAGIVIVAASGNEGAPSPSYPAAYPEVIAVGAIDSNDNIASFSNRQPEVSAPGVDILSTYPDDSYETLMGTSMATPHVSGVVALIQAAYYQKYGKILPVGTFDDISKNTVRGILHITADDLGPTGWDADYGYGVVRAALAVQAALG

Assays:
[1] = substrate: C[C@H](NC(=O)CCC(=O)O)C(=O)N[C@@H](C)C(=O)N1CCC[C@H]1C(=O)N[C@@H](Cc1ccccc1)C(=O)Nc1ccc([N+](=O)[O-])cc1; experiment: Rate parameters of Tk-SP with Suc-AAPF-pNA (Michaelis-Menten); type: biochemical, Thermococcus kodakaraensis KOD1; conditions: substrate 0.01 to 2 mM
Description: (§1) For examination of the pH dependence and the buffer dependence of the Tk-SP, enzyme reactions were performed using acetate buffers (pH 4.5, 5.0, 5.2, 5.4 and 5.6), MES buffers (pH 5.5, 6.0, 6.5 and 7.0), HEPES buffers (pH 7.0 and 7.5), Tris-HCl buffers (pH 7.0, 7.5, 8.0, 8.5 and 9.0), glycine-NaOH buffers (pH 8.5, 9.0, 9.5 and 10.0) and CAPS-NaOH buffers (pH 9.0, 9.5, 10.0, 10.5, 11.0 and 11.5) in the following procedure. 100 μl of a reaction mixture containing a 50 mM buffer and 2 mM Suc-AAPF-pNA (synthetic substrate) was incubated at 20° C. for 5 minutes. To this, 0.1 μg of the Tk-SP was added and the reaction mixture was further incubated at 20° C. for 10 minutes. The reaction was stopped by addition of 10 μl of acetic acid, and then the amount of p-nitroaniline produced from the synthetic substrate Suc-AAPF-pNA was determined by use of the absorption coefficient of 8900 M^−1 cm^−1 from the absorbance at 410 nm in an ultraviolet spectrophotometer (Beckman model DU640). The amount of the enzyme which catalyzes the production of 1 μmol of p-nitroaniline per minute was defined as “one unit.” The enzyme activity per milligram of the protein was defined as specific activity.
(§2) By use of, as a substrate, Suc-AAPF-pNA at various concentrations ranging from 0.01 to 2 mM, the specific activity of the Tk-SP was measured at 20 and 80° C. The measurement procedure was the same as that of Example 2. The obtained values were applied to the Michaelis-Menten equation for calculation of the rate parameters. For comparison, the specific activity of a known thermostable protease, Tk-subtilisin (see nonpatent literature 1) was similarly measured and then the rate parameters thereof were calculated.

[2] = substrate: C[C@H](NC(=O)CCC(=O)O)C(=O)N[C@@H](C)C(=O)N1CCC[C@H]1C(=O)N[C@@H](Cc1ccccc1)C(=O)Nc1ccc([N+](=O)[O-])cc1; experiment: Rate parameters of Tk-subtilisin with Suc-AAPF-pNA (Michaelis-Menten), comparison; type: biochemical, Thermococcus kodakaraensis KOD1; conditions: substrate 0.01 to 2 mM
Description: as §1, §2

Protein | Km ([1]; other: 20° C., 20.0 °C) | Vmax ([1]; other: 20° C., 20.0 °C) | kcat ([1]; other: 20° C., 20.0 °C) | Km ([1]; other: 80° C., 80.0 °C) | Vmax ([1]; other: 80° C., 80.0 °C) | kcat ([1]; other: 80° C., 80.0 °C) | Km ([2]; other: 20° C., 20.0 °C) | Vmax ([2]; other: 20° C., 20.0 °C) | kcat ([2]; other: 20° C., 20.0 °C) | Km ([2]; other: 80° C., 80.0 °C) | Vmax ([2]; other: 80° C., 80.0 °C) | kcat ([2]; other: 80° C., 80.0 °C)
B1 | 117 µM | 2.312 U/mg | 1.704 S^−1 | 416 µM | 34.84 U/mg | 25.668 S^−1 | – | – | – | – | – | –
B2 | – | – | – | – | – | – | 4000 µM | 38.00 U/mg | 26.00 S^−1 | 8000 µM | 420.00 U/mg | 290.00 S^−1
